Laboratory results as given in patent publication US20220235139A1 (ROCHE DIAGNOSTICS OPERATIONS, published 2022).

Assays:
[1] = biological target: T1, human CSF-1R (Colony stimulating factor 1 receptor) (human, UniProt P07333 20-972, limits assumed); assay: Western blot of cell lysates: lane 2 NIH3T3 wt, lane 3 NIH 3T3+CSF1 K4, lane 4 NIH 3T3+CSF1 K8 [continued]
T1 construct: also called M-CSF receptor; c-fms

[2] = biological target: T2, phosphorylated TtSlyD-CSF1R; assay: SPR (Biacore), antibody captured on anti-rabbit F(ab)2, analyte in solution, Langmuir fit, 25 C
T2 sequence (chain, tyrosines phosphorylated in vitro with Src (1-530) kinase; positions not stated): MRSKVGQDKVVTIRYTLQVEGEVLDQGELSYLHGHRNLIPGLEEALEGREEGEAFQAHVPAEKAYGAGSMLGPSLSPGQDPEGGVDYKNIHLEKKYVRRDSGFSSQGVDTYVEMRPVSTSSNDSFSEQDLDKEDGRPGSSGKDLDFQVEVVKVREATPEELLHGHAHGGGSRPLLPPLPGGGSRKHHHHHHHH

[3] = biological target: T3, SEQ ID NO: 14: E-G-G-V-D-pY-K-N-I-H-L-E-K-K-pY; assay: CelluSpots peptide array, 15-mer CSF-1R peptides in duplicate
T3 sequence (peptide, phosphotyrosine (pY) at positions 6 and 15): EGGVDYKNIHLEKKY

[4] = biological target: T4, SEQ ID NO 18: D-pY-K-N-I-H-L-E-K-K-pY-V-R-R-D; assay: as above
T4 sequence (peptide, phosphotyrosine (pY) at positions 2 and 11): DYKNIHLEKKYVRRD

[5] = biological target: T5, SEQ ID NO 17: V-D-pY-K-N-I-H-L-E-K-K-pY-V-R-R; assay: as above
T5 sequence (peptide, phosphotyrosine (pY) at positions 3 and 12): VDYKNIHLEKKYVRR

[6] = biological target: T6, SEQ ID NO 19: pY-K-N-I-H-L-E-K-K-pY-V-R-R-D-S; assay: as above
T6 sequence (peptide, phosphotyrosine (pY) at positions 1 and 10): YKNIHLEKKYVRRDS

[7] = biological target: T7, SEQ ID NO: 13: P-E-G-G-V-D-pY-K-N-I-H-L-E-K-K; assay: as above
T7 sequence (peptide, phosphotyrosine (pY) at position 7): PEGGVDYKNIHLEKK

[8] = biological target: T8, SEQ ID NO 21: N-I-H-L-E-K-K-pY-V-R-R-D-S-G-F; assay: as above
T8 sequence (peptide, phosphotyrosine (pY) at position 8): NIHLEKKYVRRDSGF

[9] = biological target: T9, SEQ ID NO 15: G-G-V-D-pY-K-N-I-H-L-E-K-K-pY-V; assay: as above
T9 sequence (peptide, phosphotyrosine (pY) at positions 5 and 14): GGVDYKNIHLEKKYV

[10] = biological target: T10, SEQ ID NO 16: G-V-D-pY-K-N-I-H-L-E-K-K-pY-V-R; assay: as above
T10 sequence (peptide, phosphotyrosine (pY) at positions 4 and 13): GVDYKNIHLEKKYVR

[11] = biological target: T11, SEQ ID NO 20: K-N-I-H-L-E-K-K-pY-V-R-R-D-S-G; assay: as above
T11 sequence (peptide, phosphotyrosine (pY) at position 9): KNIHLEKKYVRRDSG

[12] = biological target: T12, TtSlyD-CSF1R; assay: SPR (Biacore), captured antibody, single injection of 300 nM analyte
T12 construct: also called 21 kDa TtSlyD-CSF1R protein
T12 chain: T2 sequence (chain, tyrosines phosphorylated in vitro with Src (1-530) kinase; positions not stated)
Experimental: A Biacore B3000 instrument (GE Healthcare) was used to kinetically assess the rabbit antibodies for kinetics and binding specificity for TtSlyD-CSF1R. A CMS series sensor was mounted into the system and was normalized in HBS-ET buffer (10 mM HEPES pH 7.4, 150 mM NaCl, 3 mM EDTA, 0.005% w/v Tween 20) according to the manufacturer's instructions. The sample buffer was the system buffer supplemented with 1 mg/ml CMD (Carboxymethyldextran, Sigma #86524). The system operated at 25° C. 10000 RU GAR<F(ab)2> (relative units of goat anti rabbit F(ab)2/Jackson Laboratories, cat. No. 100018) were immobilized according to the manufacturer's instructions using EDC/NHS chemistry on all flow cells. The sensor was saturated with 1M ethanolamine. The binding activity of the antibodies against the analytes were kinetically tested. […] Antibodies were captured by a 2 min injection at 10 μl/min of cell culture HEK supernatant diluted 1:2 in sample buffer. The flow rate was set to 100 μl/min. The analyte was injected at different concentration steps of 0 nM, 1.1 nM, 3.7 nM, 11.1 nM, […], 100 nM and 300 nM for 2 min. The dissociation was monitored for 5 min. Kinetic signatures were monitored and evaluated using the Biaevaluation Software and a binary Langmuir Fitting model with RMAX local. […]

T1 sequence (P07333 other isoform, or with tags, fused parts or gaps limits assumed): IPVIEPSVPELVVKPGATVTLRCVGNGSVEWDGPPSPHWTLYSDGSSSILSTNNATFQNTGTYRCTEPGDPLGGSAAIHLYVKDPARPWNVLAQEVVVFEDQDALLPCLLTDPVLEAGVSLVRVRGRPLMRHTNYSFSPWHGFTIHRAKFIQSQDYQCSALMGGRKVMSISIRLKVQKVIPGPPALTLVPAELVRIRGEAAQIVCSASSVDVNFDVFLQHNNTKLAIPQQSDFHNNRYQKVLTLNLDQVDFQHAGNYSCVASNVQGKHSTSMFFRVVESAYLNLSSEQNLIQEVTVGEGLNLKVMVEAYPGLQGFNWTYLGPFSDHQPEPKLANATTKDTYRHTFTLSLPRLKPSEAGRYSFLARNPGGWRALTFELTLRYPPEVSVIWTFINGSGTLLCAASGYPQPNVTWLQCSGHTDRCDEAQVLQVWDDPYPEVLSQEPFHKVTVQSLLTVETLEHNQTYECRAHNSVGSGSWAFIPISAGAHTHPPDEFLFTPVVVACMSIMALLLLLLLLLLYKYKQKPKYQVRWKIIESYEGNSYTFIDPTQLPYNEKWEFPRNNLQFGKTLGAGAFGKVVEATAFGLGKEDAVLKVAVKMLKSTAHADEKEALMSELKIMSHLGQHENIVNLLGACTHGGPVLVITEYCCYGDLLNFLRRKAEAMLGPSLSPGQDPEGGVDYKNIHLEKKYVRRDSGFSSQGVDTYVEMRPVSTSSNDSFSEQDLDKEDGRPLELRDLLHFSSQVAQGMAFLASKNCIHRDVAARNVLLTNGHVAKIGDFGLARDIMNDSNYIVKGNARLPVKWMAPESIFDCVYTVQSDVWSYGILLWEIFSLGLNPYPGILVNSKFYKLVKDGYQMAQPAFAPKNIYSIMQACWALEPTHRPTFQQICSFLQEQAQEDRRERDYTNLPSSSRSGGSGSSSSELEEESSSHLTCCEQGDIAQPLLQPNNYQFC

B1: antibody 1H11 (antibody, V domains shown)
VH: QSVEESGGRLVTPGTPLTLTCTASGFSLSRYWMTWVRQAPGKGLEYIGWIDRSGNTYFADWAKGRFTGSKTSTTRDLKITSPTTEDTATYFCGRGGQNNGYDLWGPGTLVTVSS
VL: AAVLTQTPSPVSAAVGGTVTISCQSSESVYSNNFLSWYQLKPGQRPRLLIYEASKVASGVPSRFSGSGSGTQFTLTISGVQCDDAATYYCAGGYDVSDDAFGGGTEVLVK
notes: Rabbit full length IgG made recombinantly in FreeStyle 293-F cells; For SPR it was captured from HEK culture supernatant on goat anti-rabbit F(ab)2; no sentence ties 1H11 to them directly; also called rabbit monoclonal anti-CSF-1R antibody
B1 was tested, and the binding result [1] was “binds”, the Kd [2] was 0.2 nM and the koff [2] was 0.000122 s⁻¹. For the same binder, the kon [2] was 578000 M⁻¹ s⁻¹, the % Signal [3] was 55.3% and the % Signal [4] was 49.8%. It also gave a % Signal [5] of 91.8%, a % Signal [6] of 62.6% and a % Signal [7] of 100%. For the same binder, the % Signal [8] was 45.7%, the % Signal [9] was 57.1% and the % Signal [10] was 73.9%. The % Signal [11] was 48.9% and the binding result [12] was “binds”.
